Substitutions are numbered along the chain they refer to. In names and notes the source's numbering stands. Several values for one entry are separate records, joined by “and”; a condition that tells them apart may be missing. Equal values may be shown once.

Sequences and labels used below:
B1: Nxph1-2XFLAG-His (mature rat neurexophilin-1, 118-271, glycosylated) (ligand, UniProt Q63366 118-271, looked up)
chain: MFGWGDFHSNIKTVKLNLLITGKIVDHGNGTFSVYFRHNSTGQGNVSVSLVPPTKIVEFDLAQQTVIDAKDSKSFNCRIEYEKVDKATKNTLCNYDPSKTCYQEQTQSHVSWLCSKPFKVICIYISFYSTDYKLVQKVCPDYNYHSDTPYFPSG
modifications: N-linked glycans at N146, N156 and N162
notes: Neurexophilin-1, rat, mature form, residues 118-271; Expressed with an Igκ signal peptide at the N-terminus; HRV 3C site before the tags, not cut for the biochemical studies; source: 293F cells, BacMam expression system, secreted; purification of Nxph1 alone not described; not shown: 2xFLAG, C-terminal, kept; His6, C-terminal, kept
B2: Nxph1^3ND (mature rat neurexophilin-1, 118-271, N146D/N156D/N162D) (ligand, UniProt Q63366 118-271, looked up)
chain: B1 chain with N29D, N39D, N45D
notes: Neurexophilin-1, rat, mature form, residues 118-271, the three N-linked glycosylation sites mutated to aspartic acid; Expressed with an Igκ signal peptide at the N-terminus; tags removed with HRV 3C protease; also called Nxph1 (in the crystal structures); source: HEK293S GnTI- cells, BacMam, co-expressed with LNS2, complex purified (HisTrap, StrepTrap, 3C cleavage, Mono Q); not shown: 2xFLAG, …
B3: Nrxn3 LNS2^SS2A+, AviTag-His, biotinylated (BLI) (domain or fragment)
chain: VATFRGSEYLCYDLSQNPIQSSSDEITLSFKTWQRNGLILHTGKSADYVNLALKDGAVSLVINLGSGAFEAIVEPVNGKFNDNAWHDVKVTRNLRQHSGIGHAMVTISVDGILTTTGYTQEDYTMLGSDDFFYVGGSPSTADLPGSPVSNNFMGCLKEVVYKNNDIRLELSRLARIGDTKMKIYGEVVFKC
modifications: biotin on the AviTag (BirA)
B4: Nrxn1 LNS2^SS2− (I401Q), AviTag-His, biotinylated (BLI) (domain or fragment)
chain: not shown
modifications: biotin on the AviTag (BirA)
notes: numbers count on: UniProt Q9CS84-1 (isoform 1a); Igκ signal peptide at the N-terminus; source: 293F cells, transfected, secreted, purified (Ni-NTA, BirA biotinylation, Superdex Increase 200); not shown: AviTag, C-terminal, kept; His6, C-terminal, kept
B5: Nxph3-2XFLAG-His (rat neurexophilin-3, 50-252) (ligand, UniProt Q9Z2N5 50-252, looked up)
chain: RGHISPKSRPLANSTLLGLLAPPGEVWGILGQPPNRPKQSPLPSTKVKKIFGWGDFYSNIKTVALNLLVTGKIVDHGNGTFSVHFRHNATGQGNISISLVPPSKAVEFHQEQQIFIEAKASKIFNCRMEWEKVERGRRTSLCTHDPAKICSRDHAQSSATWSCSQPFKIVCVYIAFYSTDYRLVQKVCPDYNYHSDTPYYPSG
modifications: glycans (sites not given)
notes: Neurexophilin-3, rat, residues 50-252; Expressed with an Igκ signal peptide at the N-terminus; HRV 3C site before the tags, not cut; source: 293F cells, BacMam expression system, secreted; purification not described; not shown: 2xFLAG, C-terminal, kept; His6, C-terminal, kept
B6: Nrxn1 LNS2^SS2−, AviTag-His, biotinylated (BLI) (domain or fragment)
chain: not shown
modifications: biotin on the AviTag (BirA)
notes: as for B4

Data set [1] has as its target B6. As to the kind of experiment: BLI; Octet RED384; biotinylated neurexin LNS2 on streptavidin tips, Nxph in solution; 25°C, PBS pH 7.4, 50 nM TCEP, 1% BSA; global fit, double reference subtraction. To be noted: both partners purified. (In general: BLI is a label-free optical method that tracks binding on a fibre tip over time.)
The target in data set [2] is T1, Nrxn1 LNS2^SS2A+ (I401Q), AviTag-His, biotinylated (BLI) (mouse, UniProt Q9CS84-1 283-480, 283–386; 394–480 | I401Q, biotin on the AviTag (BirA)).
T1 construct: numbers count on: UniProt Q9CS84-1 (isoform 1a); Igκ signal peptide at the N-terminus; source: 293F cells, transfected, secreted, purified (Ni-NTA, BirA biotinylation, Superdex Increase 200); not shown: AviTag, C-terminal, kept; His6, C-terminal, kept
The data set is described as above. Particulars: both partners purified.

Data set [3] has as its target T2, Nrxn1 LNS2^SS2A+, AviTag-His, biotinylated (BLI) (mouse, UniProt Q9CS84-1 283-480, 283–386; 394–480, biotin on the AviTag (BirA)).
T2 construct: numbers count on: UniProt Q9CS84-1 (isoform 1a); Igκ signal peptide at the N-terminus; source: 293F cells, transfected, secreted, purified (Ni-NTA, BirA biotinylation, Superdex Increase 200); not shown: AviTag, C-terminal, kept; His6, C-terminal, kept
The data set is described as above. Particulars: both partners purified.

The target of data set [4] is B4. The data set is described as above. To be noted: both partners purified.
Data set [5] concerns the molecule itself. As to the kind of experiment: SEC-MALS + other: SEC-SAXS; Nxph1 alone; SEC-MALS on Superdex 200 10/300 in PBS pH 7.4, SEC-SAXS on Superdex Increase 200 3.2/300. Background: SEC sorts molecules by how far they enter the pores of the column.
Data set [6] concerns the target T3, Nrxn1 LNS2^SS2A+, crystallographic construct (mouse, UniProt Q9CS84-1 283-480, 283–386; 394–480).
T3 construct: Neurexin-1 alpha, mouse, LNS2 domain with the eight-residue SS2A insert (379-386), residues 283-386 joined to 394-480; numbers count on: UniProt Q9CS84-1 (isoform 1a); Expressed with an Igκ signal peptide at the N-terminus; not shown: Twin-Strep, C-terminal, cleaved
As to the kind of experiment: SEC-MALS; Superdex 200 10/300, 0.5 ml/min, PBS pH 7.4. To be noted: both partners purified.

In data set [7] the target is T4, Nrxn1 LNS2^SS2− (C293A), crystallographic construct (mouse, UniProt Q9CS84-1 283-480, 283–378; 394–480 | C293A).
T4 construct: Neurexin-1 alpha, mouse, LNS2 domain without insert in splice site 2, residues 283-378 joined to 394-480; numbers count on: UniProt Q9CS84-1 (isoform 1a); Expressed with an Igκ signal peptide at the N-terminus; source: HEK293S GnTI- cells, BacMam, co-expressed with Nxph1^3ND, complex purified (HisTrap, StrepTrap, 3C cleavage, Mono Q); not shown: Twin-Strep, C-terminal, cleaved
The description is as above. To be noted: both partners purified.

The target of data set [8] is B1. The data set is described as follows: BLI; Octet RED384; biotinylated neurexin LNS2 on streptavidin tips, Nxph in solution; 25°C, PBS pH 7.4, 50 nM TCEP, 1% BSA; global fit, double reference subtraction. To be noted: both partners purified.
The target of data set [9] is B5. Described as above. Particulars: both partners purified.
Data set [10] concerns the molecule itself. The data set is described as follows: SEC-MALS; Superdex 200 10/300, 0.5 ml/min, PBS pH 7.4.

T1 sequence (Q9CS84 other isoform, or with tags, fused parts or gaps with the stated changes): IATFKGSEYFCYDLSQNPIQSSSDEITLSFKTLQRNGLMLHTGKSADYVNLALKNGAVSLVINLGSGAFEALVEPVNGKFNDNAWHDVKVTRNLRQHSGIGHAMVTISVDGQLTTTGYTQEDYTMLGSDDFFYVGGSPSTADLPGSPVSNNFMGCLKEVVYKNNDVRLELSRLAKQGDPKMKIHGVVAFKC
T2 sequence (Q9CS84 other isoform, or with tags, fused parts or gaps 283–386/394–480 | 283–386/394–480): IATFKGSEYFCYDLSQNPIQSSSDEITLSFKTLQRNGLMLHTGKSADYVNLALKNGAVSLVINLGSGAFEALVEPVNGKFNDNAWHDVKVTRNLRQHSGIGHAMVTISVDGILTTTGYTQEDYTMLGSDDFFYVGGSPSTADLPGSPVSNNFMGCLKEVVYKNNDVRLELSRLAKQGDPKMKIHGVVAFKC
T4 sequence (Q9CS84 other isoform, or with tags, fused parts or gaps with the stated changes): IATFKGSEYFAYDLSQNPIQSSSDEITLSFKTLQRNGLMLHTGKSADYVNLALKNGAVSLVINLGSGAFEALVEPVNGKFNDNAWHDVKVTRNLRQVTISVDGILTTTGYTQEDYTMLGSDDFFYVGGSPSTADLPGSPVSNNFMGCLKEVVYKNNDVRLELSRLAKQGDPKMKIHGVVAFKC
T3 sequence (Q9CS84 other isoform, or with tags, fused parts or gaps 283–386/394–480 | 283–386/394–480): as the sequence (Q9CS84 other isoform, or with tags, fused parts or gaps 283–386/394–480 | 283–386/394–480) above

As to B1, the Kd was 299 nM in data set [1], 472 nM in [2], 49 nM in data set [3] and 16400 nM in [4]. Moreover, the koff in [1] stood at 0.00012 s⁻¹; in data set [2], 0.0002 s⁻¹; in data set [3], 9.7e-05 s⁻¹; in data set [4] it was 0.0034 s⁻¹. Also, the kon in [1] came to 399 M⁻¹ s⁻¹; in [2] it was 419 M⁻¹ s⁻¹; in data set [3], 2040 M⁻¹ s⁻¹; in data set [4], 220 M⁻¹ s⁻¹. Further, the “stoichiometry N” value in [5] is 2 and 4.

Take B2: the “stoichiometry N” value in data set [6] and in [7] was 1 each time.

As for B3, in [8], the affinity, expressed as Kd, was 31.4 nM; the koff worked out at 6.4e-05 s⁻¹; the kon was 2060 M⁻¹ s⁻¹.

Turning to B4, in data set [9], the Kd came out at 3340 nM, the koff stood at 0.00064 s⁻¹ and the kon is 194 M⁻¹ s⁻¹.

For B5, in data set [10], the binding result is “binds”.

In data set [9], B6 had a Kd of 260 nM, a koff of 0.0001 s⁻¹ and a kon of 209 M⁻¹ s⁻¹.

As a reminder, the Kd is a measure of binding affinity in units of concentration. Read a high Kd as lower affinity. The koff is the rate constant with which the complex falls apart. Usually kon stands for the rate constant with which the complex forms. The low end stands for slow association, the high end for fast association. One may read the stoichiometry N as the number of molecules, sites or subunits per partner or assembly.

The values are drawn from article PMC6856630, “Structures of neurexophilin–neurexin complexes reveal a regulatory mechanism of alternative splicing” (The EMBO Journal, 2019).
